Test: yeast display, Sf9 membrane polyspecificity reagent, FACS + sequencing; frameworks hold sequencing errors
Procedure, shortened: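 Synthetic nanobody libraries on Saccharomyces cerevisiae BJ5465 were galactose-induced for 36–48 hours, stained 1 hour at 4 °C with 10% biotinylated, detergent-solubilized Sf9 membrane reagent and enriched on streptavidin microbeads. FACS then separated cells into low and high (top ~1%) gates by anti-HA (expression) and streptavidin (reagent binding) fluorescence. Genes were colony-PCR amplified, MiSeq 2 × 250 sequenced and CDR-length filtered. A clone's polyreactivity label is that of its gate of origin.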

Row | Sequence | polyreactivity (PSR sort gate)
1 | QVQLVESGGGLDQAGGSLRLSCAASGSTFVGYAMGWYRQAPGKERELVAAISGSGTSTYYADSVKGRFTISRDNAKNTVYLQMNSLKPEDTAVYYCNADPIFVYSSYNYWGQGTQVTVSS | low polyreactivity
2 | QVQLVESGGGLVQAGGSLRLSCAASGIIFKYYAMGSYRQAPGKERELVAAITRSGGSTYYADSVKGRFTISRDNAKNTVYLQMNSLKPVDTGVYYCAAQTGYSYGITWQFTKYNYWGQGTQVTVSS | low polyreactivity
3 | QVQLVESGGGLGQAGGSLRLSCAASGSIFRGYAMGWYRQAPGKERELVAAISWSGGSTYYADSVKGRFTISRDNAKNTVYLQMNSLKPEDTAVYYCAADRDVFGYWYYYWGQGTQVTVSS | high polyreactivity
4 | QVQLVESGGGLVQAGGSLRLSCAASGRTFGVNAMGWYRQAPGKERELVAAINRGGSTYYADSVKGRFTISRDNAKNTVYLQMNSLKPEDTAVYYCAAYVSAVHRNSGYWGQGTQVTVSS | low polyreactivity
5 | QVQLVESGGGLVQAGGSLRLSCAASGRIFKLYAMGWYRQEPGKVRELVASITWGGGSTNYADSVKGRFTISRDNAKNTVYLQMNSLKQEDTAVYYCAAVYSKFAVFWEYDYWGQGTQVTVSS | low polyreactivity
6 | QVQLVESGGGLVQAGGSLRLSCAASGFTFSYYARGWYRQAPGKERELVAAISINGGRTYYADSVKGRFTISRDNAKNTVYLQMNSLKPEDTAVYYCNAVSYAYTVRMYYWGQVTQVTVSS | high polyreactivity
7 | QVQLVESGGGLVQAGGSLRLSCAASGRTFQGYTMGWYRQAPGKERELVAAITGGVGSTYYADSVKGRFTISRDNAKNTVYLQMNSLKPEDTAVYYCNTVSYGYTDLYIFYTGYYYWGQGTQVTVSS | low polyreactivity
8 | QVQLVESGGGLVQAGGRLRLSCAASGRIFSYNAMGWYRQAPGKERELVAGITSGGRTYYADSVKGRFTISRDNAKNTVYLLIYSLKPEDTAVYYCGARYVPARSGYYYWGQGTQVTVSS | high polyreactivity
9 | QVQLVESGGGLVQAGGSLRLSCAASGSMFYKNAMVWYRQAPGKEREMVAAINSVGSTDYADSVKGRFTISRDNAKNTVYLQMNSLTPEDTAVYYCAATNLFTIIDYDYWGQGTQVTVSS | low polyreactivity
10 | QVQHVESGGGLVQAGGSLRLSCAASGFTSSRNAMGWSRQAPGKERELVATISSGGDTYYADSVKGRFTISRDNAKNSVYLQMNSLKPEYTAVYYCNKDTLYAWGYDYWGQGTQVTVSS | low polyreactivity
11 | QVQLVESGGGLVQAGGSLRLSCAASGRIFGVYAMGWYRQAPGKERELVAAISTRGGSTYYADSVKGRFTISRDNAKNTVYLQMNSLKPEDTAVYYCAAKSNNIATMDYWGQGTQVTVSS | low polyreactivity
12 | QVQLVESGGGLVQAGGSLRLSCAASGLTFVKYAMGWYRPAPGKERELVAAISRSGGRTYYADSVKGRFTISRDNAKNTVYLQMNSLKPEDTAVYYCNADHVRGNHGYDYWGQGTQVTVSS | high polyreactivity
13 | QVQLQESGGGLVQAGGSLRQSCAASGYIFPYYSMGWYRQAPGKERGLVACIAAGTTTNYADSVKGRFTISRDNAKNTVYLQMISLKPEDAAVYYCAALNAFNTGHWYWGQGTQVTVSS | low polyreactivity
14 | QVQLVESGGGLVQAGGTLPLSCAASGFTVRSYAMGWYRQAPGEEREIVAAISRLGDSTYFADSVKGRFTISRDNAKNTVYLQMYSLITEDTAVYYCAKYGIASRFSRFDSWGQGTQVTVSS | high polyreactivity
15 | QVQLVESGGGLVQAGGSLRLSCAASGSTFYRNAMGWYRQAPGKERELVATITFNGGSTYYADSVKGRFTISRDNAKNTVYLQMNSLKPEDTAVYYCNTDWRGDPELYDYWGQGTQVTVSS | low polyreactivity
16 | QVQLVESGGGLFQAGGSLRLSCAASGYIFRSYAMGGYRQAPGKERELVAAITRSGGSTYYADSVKGRFTISRDNAKNTVYFQMNSLKPEDTAVYYCAVLPRGSNGMDYCGQGTQVTVSS | low polyreactivity
17 | QVQLVESGGGLVQAGGILLLSCAASGSIFKPYAMGWYTQAPGKERELVAAISKRGGSTSYADSVKGRFTISRDNAKNSVYLQMNSLKPEDTAVYYCAAVAAFSGLSWYDYWGLGTQVTVSS | high polyreactivity
18 | QVQLVESGGGLVQAGGSLRLSCAASGFPIHAYVMGWYRQAPGKERELVAAISSGGSTYYADSVKGRFTISRDNAKKTVYLQMNSLKPEDTAVYYCAAGYPYYWHFDYWGQGTQVTVSS | low polyreactivity
19 | QVQLVESGGGLVQAGGSLRLSCAASGITFRYYAMGWYRQAPGKERELVAAISGSGGSTYYADSVKGRFTISRDNAKNTVYLQMNSLKPEDTAVNYCNVDKGYSRSLRLGYDYWGQGTEVTVSS | high polyreactivity
20 | QVQLVESGGGLVQAGGSLRLSCAASGSTLVLNAMGWYRQAPGKERELVAAISRGGGSTSYADSVKGRFTISRDNAKNTVYLQMNSLKPEDTAVYYCNAYTYYHANHEQGFGYWGQGTQVTVSS | low polyreactivity
21 | QVQLVESGGGLVQAGGSLRLSSAASGFISPSYALGWYRPAPGTERELDAAIRSSDGSTYYADSVKGRFTISRDTAMNSVYLQMNSLKPEDTAVYYCAGGGSYYRDDYWGQGTQVTVSS | low polyreactivity
22 | QVQLVESVGGLVQAGGSLRLSCAASGITFDRNAMGWYRQAPGKERELVAAISSGGTYADSVKGRFTISRDNAKNTVYLQMNSLKPEDTAVYYCNADTDYIRWIYGYWGQGTQVTVSS | low polyreactivity

Row | Sequence | polyreactivity (PSR sort gate)
23 | QVQIVESGGGLVQAGGSLRLSCAASGLIFVVYAMGWNRQATGIERELVADISSVGRTSYADSVKGSFTISRDNAKNNVYLQMNSLKPEDTAVYYCNAYPVFNQYYCWRYDYLGQGTQVTVSS | low polyreactivity
24 | QVQLVESGGGLVQAGGSIRISCAASGITFIDYTMGWYRQAPGKERELVAVITKTGYRTYYADSVKGRFTISRDNANNSDYLQMNSLNRSDSAVYYCNALYYIHYYEGYGYWGQGTQVTVSS | high polyreactivity
25 | QVQLVESGGGLVQAGGSLRLSCAASGSTDNNAMGWYRQAPGKERELVAAIRFRSGSTYYADSVNGRFTISRDNAKNTVYLQMNSLKPEDTAVYYCAAPGSPYGYWGQGTQVTVSS | high polyreactivity
26 | QVQLVESGGGLVQAGGSLRLSCAASGRTIWYYAMGWYRQAPGKERELVASITRSGGSTYADSVKGRFTISRDNAKNTVDLQMNSLKPEDTAVYYCAATRPRIPVYQNNYGYWGQGSQVTVSS | high polyreactivity
27 | QVQLVESGGGLVQAGGSLRLSCAASGSTSQYNAMGWYRQAPGKERELVAAISWSGTSTYYADSVKGRFTISRDNAKNTVYLQMNSLKPEDTAVYYCAADYIFDYDYWGQGTQVTVSS | low polyreactivity
28 | QVQLVESGGGLVQAGGSLRLSCAASGRTFYFNAMGWYRQAPGKERELVAAITNSGGSTYYADSVKGRFTISRDNAKNTVYLQMNSLKPEDTAVYYCAATYKDGYWLVPGYGYWGQGTQVTVSS | low polyreactivity
29 | QVQLVESAGGLVQAGGSLRLTCAASGLTFRVFAMGWYRQAPGKERELVAAISSRGGSTYYADSVKGRFTISRDNAKYTVYLQMNSLKPEDTAVYDCYARGQGGYWGQGTQVTVSS | high polyreactivity
30 | QVQLVESGGGLVQAGGSLRLSCAASGRTIASYAMGWYRQAPGKERELVAAITSGGSTYYADSVKGRFTISRDNAKNTVYLQMNSLKPEDTAVYYCAAYVRPAYYAIHVDYWGQGTQVTVSS | low polyreactivity
31 | QVQLVESGGRLVQAGGSLRLSCAASGSTITPNSMGWYRQAPGKERELVAAITTGGSTKYADSVKGRFTISRDNAKKTVYLQLTSLNPADTAVYYCNTDRGAYFYVIWPPWTYDWGQGTQVTVTS | low polyreactivity
32 | QVQLVESGGGLVQAGGSLRISCAASGRIFDTYVMGWYRQAPGKERELVAAISGSGGSTYYADSVKGRFTISRDNAKNTVYLQMNSLKPEDTAVYYCAAARRYYAYRYDYWGQGTQVTVSS | high polyreactivity
33 | QVQLVESGVGLVQAGGSLRLSCAASGSIFHIYAMGWYRQAPGKERELVAAMTYADSVKGRFTISRVNAKNTVYLQMNSLKPEDTAVYECNADNWPRIHGSAYDYWGQGTQVTVSS | low polyreactivity
34 | QVQLVESGGGLVQAGGSLRLSCAASGLTLGRNAMGWYRQAPGKERELVAAISYGGGSTYYADSVKGRFTISRDNAKNTVYLQMNCLKPEDTAVYYCAADGWRTYGYYEYDYWGQGTQVTVSS | low polyreactivity
35 | QVQLVESGGGLVQAGGSLRLSFAASGLTFYTNAMGWYRQAPGKETELVATITSGGRTSYADSVKGRFTISRDNAKNTVYLEMNRLKPEDTAVYYCADTTGWYGARYGYWGQGTQVTVSS | high polyreactivity
36 | QVQLVESGGGLVQAGGSLRLSCADSGFTFSLNTMGWYRQAPGKERELVAAINSGDSTYADSVKGRFTISRDNAKNTVYLQMNSLKPEDTAVYYCNADPDWWYPYIYWGQGTQVTVSS | low polyreactivity
37 | QVQLVESGGGLVQAGGSLRLSCAASGRTFRYYAMGWYRQAPGKERELVAAITISSGSTYYADSVKGRFTISRDNAKNTVYLQMNSLKPEDTAVYYCAATRRYHFDYWGQGTQVTVSS | high polyreactivity
38 | QVQLVESGGGLVQAGGSLRLSCAASGRIFNVYAMGWYRPAPGTERELVAAIRRRGDRTYYADSVKGRFTLSRDNAKNTVYLQMNSLNPEDTADYYCAKSQSAKGGYDYWGQGTQVTVSS | high polyreactivity
39 | QVQLVESGGGLVQAGGSLRLSCAASGSIFIYYTMGWYRQAPGKEREFVASISWRGGRTYYADSVKGRFTISRDNAKNTVYLQMNSLKPEDTAVYYCAAKSRAYSYRMDYWGQGTQVTVSS | high polyreactivity
40 | QVQLVESRGGLVQAGGSLRLSFPASGSTFYKYAKGWYRQAPGKERELVASISRRAGSTYYADSVKGRFTISRDNAKNTVDVQMTSLKPEDTAVYYCAAVGRYDRVFDYDYWGQGTQVTVSS | high polyreactivity
41 | QVQLVESGGGLVQAGGSLRLRCAASGRTFELYAMGWYRQAPGKERALVAAITASGGTTYYADSVKGRFTISRDNAKNTVYLQMNSLKPEDTAVYYCAAEYSYYPFTDYDYWGQGTQVSVSS | high polyreactivity
42 | QVQLVESGGGLVQAGGSLRLSCAASGFTFPYYAMGWYRQAPGTERELVASNSRSGSTNYADSVKGRFTISRDNAKNTVYLQMNSLKPEDTAVYYCAAQLYSRGGYWGHGTQVTVSS | high polyreactivity
43 | QVQLVESGGGLVQAGGSLRLSCAASGFILSPNTMGWYRLAPGKERELVAAISSDVSTYADSVKGRFTISRDNAKNTVYLQMYSLKPEDTAVYYCNADDFGYASYESWGQGTQVTVSS | low polyreactivity
